Measurements reported in patent publication US20050282239A1, “Cell-permeable enzyme activation reporter that can be loaded in a high throughput and gentle manner” (priority 2003, published 2005).
Ends that are not written are not given here.

How the values were obtained:
PKB [1] = target: T1, PKB (Homo sapiens, UniProt P31749); assay: CACE: intracellular phosphorylation of PKB substrate in HT1080/PTEN cells; format: cell-based; details: 1 μM extracellular
T1 construct: endogenous in cells; host or cells: HT1080 cells; HT1080/PTEN cells (engineered to over-express wild type PTEN, PKB itself not transfected)
Procedure: Previous investigators developed cleavable PTD-cargo conjugates by engineering a disulfide linkage between the two domains (Stein, Weiss et al. 1999; Hallbrink, Floren et al. 2001). […] TAT(49-57)(SEQ ID NO:2) was conjugated via a disulfide bond to cysteines added to substrate peptides for CamKII (F-CamKII-C; SEQ ID NO:13) or PKB (F-PKB-C; SEQ ID NO:14), denoted F-CamKII-C-SS-TAT (SEQ ID NO:15) and F-PKB-C-SS-TAT (SEQ ID NO:16), respectively. The TAT(49-57)-Conjugated substrates were incubated with cells (HT1080 or HT1080/PTEN cells) and the contents of the cells were analyzed by the CACE. […]
CACE has been previously described (Sims, Meredith et al. 1998; Meredith, Sims et al. 2000; Li, Wu et al. 2001). Briefly, cells were placed on an inverted fluorescence microscope stage (Diaphot 300, Nikon, Japan) and maintained at 37° C. with an objective heater (Bioptechs; Butler, Pa.) prior to lysis unless stated otherwise. […] Cells were always maintained in ECB when analyzed by the CACE.
(§1) CE was performed as described (Sims, Meredith et al. 1998), with the following modifications. […] The loaded volume was calculated from Poiseulle's equation and from contributions by spontaneous fluid displacement and diffusion (Weinberger, 2000; Fishman, 1994; Crank, 1989). […] Analytes were detected by laser-induced fluorescence (Sims, Meredith et al. 1998). […]

HT1080 cells = assay: CACE single-cell analysis: loading and release of cargo; format: cell-based, human
RBL cells = assay: as above; format: cell-based, rat; details: 750 nM extracellular
PKB [2] = target: T2, PKB (Rattus norvegicus, UniProt P47196); assay: CACE: intracellular phosphorylation of PKB substrate in RBL cells; format: cell-based; details: 750 nM extracellular
T2 construct: endogenous in cells; host or cells: RBL-2H3 rat basophilic leukemia cells, with or without PIP3-histone
Procedure: To determine whether the F-PKB-C delivered to cells by addition of F-PKB-C-SS-TAT (SEQ ID NO:16) at a 750 nM extracellular concentration could also be phosphorylated after pharmacologic activation of PKB (rather than constitutively active PKB), PIP3-histone was added to RBL cells. […] The CACE was used to analyze the amount of phosphorylated F-PKB-C in the presence (15 μM) and absence of PIP3-histone added for 10 min to RBL cells loaded with F-PKB-C-SS-TAT (FIG. 6C,D).
CACE has been previously described (Sims, Meredith et al. 1998; Meredith, Sims et al. 2000; Li, Wu et al. 2001). Briefly, cells were placed on an inverted fluorescence microscope stage (Diaphot 300, Nikon, Japan) and maintained at 37° C. with an objective heater (Bioptechs; Butler, Pa.) prior to lysis unless stated otherwise. The cells were continually washed with ECB maintained at 37° C. (unless otherwise indicated) with a flow rate of 1 ml/min and a total chamber volume of 0.5 ml. […] Cells were always maintained in ECB when analyzed by the CACE.
as §1

PKB [3] = target: T1, PKB; assay: CACE: intracellular phosphorylation of PKB substrate in HT1080 cells; format: cell-based; details: cells with only two peaks
Excerpt: Since the properties of F-PKB (SEQ ID NO:17) microinjected into HT1080 cells have been well characterized, experiments were undertaken to compare the fate of F-PKB-C loaded as F-PKB-C-SS-TAT (SEQ ID NO:16) into HT1080 cells to that of the microinjected F-PKB (SEQ ID NO:17). When microinjected, the percentage of phosphorylated F-PKB depended on the relative, steady-state levels of both the kinases and phosphatases. This observation is shown in electrophoretic traces from cells loaded with F-PKB-C-SS-TAT (1 μM) (FIG. 6). A single asterisk denotes the migration time of F-PKB, and a double asterisk denotes the migration time of phosphorylated F-PKB from cells on the day of the experiment.
CACE has been previously described (Sims, Meredith et al. 1998; Meredith, Sims et al. 2000; Li, Wu et al. 2001). Briefly, cells were placed on an inverted fluorescence microscope stage (Diaphot 300, Nikon, Japan) and maintained at 37° C. with an objective heater (Bioptechs; Butler, Pa.) prior to lysis unless stated otherwise. The cells were continually washed with ECB maintained at 37° C. (unless otherwise indicated) with a flow rate of 1 ml/min and a total chamber volume of 0.5 ml. The inlet of a capillary (30 μm I.D., 360 μm O.D., 75 cm long) was positioned 10 μm above the cell. The inverted microscope was coupled to a pulsed Nd:YAG laser and a CE system (Sims, 1998). The CACE-based assay was performed as previously described (U, 2001; Meredith, 2000). Cells were always maintained in ECB when analyzed by the CACE.
CE was performed as described (Sims, Meredith et al. 1998), with the following modifications. The inner walls of the capillaries (30 μm I.D., 360 μm O.D.) were coated with poly(acrylate) (Wang, Hu et al. 2003). The outlet of the capillary was held at a negative potential of 18-21 kV, and the inlet reservoir was held at ground potential. Under these conditions, the current through the capillary was typically ˜36 μA. Solutions of standards were loaded into the capillary by gravitational fluid flow. The loaded volume was calculated from Poiseulle's equation and from contributions by spontaneous fluid displacement and diffusion (Weinberger, 2000; Fishman, 1994; Crank, 1989). To estimate the number of moles of peptide in an unknown solution or within a cell, the peak area from the electrophoretic trace of the solution or the cell was compared to that of a standard of known concentration separated by electrophoresis on the same day. A 1 pL cell volume and 100% peptide recovery was assumed in calculating intracellular peptide concentration (Meredith, Sims et al. 2000; Sims, Meredith et al. 1998). Analytes were detected by laser-induced fluorescence (Sims, Meredith et al. 1998).
Cells were incubated at room temperature for 5 minutes in 1% bovine serum albumin (BSA) in ECB, washed in ECB, and then incubated for 5 minutes at room temperature with a substrate conjugated to TAT(49-57). The cells were then washed with 1% BSA in ECB. Cells loaded with the disulfide conjugate were placed in supplement DMEM (10% FCS, 4 mM L-glutamine, 100 U/mL penicillin and 100 μg/mL streptomycin) and incubated at 37° C. in 5% CO2 for 20 minutes. Cells loaded with the photolabile conjugate were placed in supplemented DMEM and incubated at 37° C. in 5% CO2 for 10 minutes (unless stated otherwise) and were then illuminated with a UV light source for 10 seconds (a radiant energy/unit area of 2 kJ/m^2). The supplemented DMEM was exchanged and the cells were incubated another 10 minutes at 37° C. in 5% CO2. Just prior to analysis the cells were washed into ECB.

recombinant CamKII = target: T3, recombinant CamKII (Rattus norvegicus, UniProt P11275); assay: In vitro kinase assay, 32P phosphate incorporation; format: biochemical; details: peptides 5-60 μM, 30° C., 30 minutes
T3 construct: purchased Calbiochem (San Diego, Calif.) / EMD Biosciences (San Diego, Calif.)
Procedure: In addition to assessing the electrophoretic behavior of F-CamKII-TAT, the ability of this conjugated sequence to act as an efficient substrate for the CamKII enzyme was characterized. The amount of phosphate incorporated into the substrate peptide alone and into F-CamKII-TAT by CamKII was measured in vitro. In the range of measured peptide concentrations, 90% less phosphate was incorporated by the CamKII enzyme into F-CamKII-TAT compared to the peptide lacking the TAT(49-57) sequence. The kinetic properties of CamKII enzyme for the CamKII peptide substrate were degraded when the peptide was conjugated to TAT(49-57).
Peptides (5-60 μM) were phosphorylated in vitro by 100 units of recombinant CamKII (EMD Biosciences; San Diego, Calif.) in 20 mM Tris-HCl, 10 mM MgCl2, 0.5 mM dithiothreitol (DTT), and 0.1 mM Ethylenediaminetetraacetic acid-(EDTA, pH 7.5) with […], 2 mM CaCl2 and […] [[…]-^32P]-ATP. The final specific activity of the [[…]-^32P]-ATP was 100 cpm/pmole; the total reaction volume was 25 μL. The mixture was incubated at 30° C. for 30 minutes. The reaction was stopped by adding 45 μL ice-cold 10% (v/v) trichloroacetic acid, mixed with a vortex, centrifuged, and blotted onto P81 phosphocellulose paper. Phosphate incorporation was quantified with a liquid scintillation counter (LS 3801; Beckman Instruments; Irvine, Calif.)

Jurkat cells = assay: Michaelis-Menten kinetics of cellular uptake; format: cell-based, human; details: 4° C. (on ice), Lineweaver-Burk plots, incubation 30-240 seconds
Procedure: When cellular uptake of polymers of D- and L-arginine were analyzed by Michaelis-Menten kinetics (see Example 6), the rate of uptake by Jurkat cells was so efficient that precise Km values could only be obtained when the assays were carried out at 4° C. (on ice). Both the maximal rate of transport (Vmax) and the apparent affinity of the peptides for the putative receptor of the Michaelis constant (Km) were derived from Lineweaver-Burk plots of the observed fluorescence of Jurkat cells after incubation with varying concentrations of nonamers of D- and L-arginine for 30, 60, 120, and 240 seconds.

cells = assay: Confocal microscopy of conjugate uptake; format: cell-based; details: same concentration for all conjugates
Excerpt: The ability of the D- and L-arginine polymers to enhance trans-membrane transport was confirmed by confocal microscopy (see FIGS. 6A-F and Example 4).

[4] = test system: F-CamKII-TAT (fluorescein-labeled CamKII substrate peptide conjugated to TAT(49-57) through a peptide bond)

T1 sequence (P31749 whole entry): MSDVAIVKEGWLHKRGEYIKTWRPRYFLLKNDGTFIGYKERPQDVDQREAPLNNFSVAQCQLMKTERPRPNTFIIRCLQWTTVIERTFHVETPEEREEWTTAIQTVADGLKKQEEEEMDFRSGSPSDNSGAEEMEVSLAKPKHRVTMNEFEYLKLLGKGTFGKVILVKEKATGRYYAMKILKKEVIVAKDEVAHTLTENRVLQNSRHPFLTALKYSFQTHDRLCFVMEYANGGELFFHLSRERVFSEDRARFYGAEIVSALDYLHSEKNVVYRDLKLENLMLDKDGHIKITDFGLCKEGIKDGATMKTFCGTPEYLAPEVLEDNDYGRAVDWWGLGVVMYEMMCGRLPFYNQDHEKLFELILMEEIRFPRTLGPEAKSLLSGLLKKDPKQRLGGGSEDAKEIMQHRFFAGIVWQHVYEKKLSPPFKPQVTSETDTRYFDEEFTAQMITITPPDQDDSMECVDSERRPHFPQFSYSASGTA
T2 sequence (P47196 whole entry): as the sequence (P31749 whole entry) above, with S2N, D46E, A50S, K112R, E117T, S137A, K389T, G410N, H415D counted along it

## Gly Arg Pro Arg Ala Ala Thr Phe Ala Glu Gly Cys Arg Lys Lys Arg Arg Gln Arg Arg Arg (Fluorescein-GRPRAATFAEGCRKKRRQRRR-NH2; not fully specified; printed as Gly Arg Pro Arg Ala Ala Thr Phe Ala Glu Gly Cys Arg Lys Lys Arg Arg Gln Arg Arg Arg; also: disulfide linkage between the PKB-Cys part and the TAT part (partner not shown)) [F-PKB-C-SS-TAT, F-PKB-C conjugated to TAT(49-57) via a disulfide bond]
PKB [1]
  peak of phosphorylated F-PKB-C: no peak was present
HT1080 cells; 215 nM extracellular
  average amount of detected F-PKB-C: 2.5e-19 ± 3e-20 mol
  cytosolic concentration of free F-PKB-C: ~250 nM
HT1080 cells; 1 μM extracellular
  detectable F-PKB-C per cell: 7e-19 ± 3e-20 mol
HT1080 cells; 1 μM extracellular, 1 pL cell volume assumed
  cytosolic concentration of free F-PKB-C: ~700 nM
RBL cells
  detectable F-PKB-C per cell: 1.4e-20 ± 1e-21 mol
  intracellular concentration: ~14 nM
PKB [2]; PIP3-histone 15 μM 10 min, n=4
  F-PKB-C phosphorylated: 39%±14%
PKB [2]; cells not exposed to PIP3-histone
  F-PKB-C phosphorylation: no phosphorylation
PKB [3]
  peptide present as phosphorylated F-PKB-C: 75±8%

## Lys Lys Ala Leu His Arg Gln Glu Thr Val Asp Ala Leu Arg Lys Lys Arg Arg Gln Arg Arg Arg (KKALHRQETVDALRKKRRQRRR-NH2; not fully specified (N-terminus); printed as Lys Lys Ala Leu His Arg Gln Glu Thr Val Asp Ala Leu Arg Lys Lys Arg Arg Gln Arg Arg Arg; also: fluorescein label, position not given here) [F-CamKII-TAT, F-CamKII conjugated to TAT(49-57) through a peptide bond]
Recombinant CamKII
  less phosphate incorporated by CamKII compared to the peptide lacking the TAT(49-57) sequence: 90%

## RKKRRQRRR [TAT(49-57), basic region of HIV TAT protein, residues 49-57]
Jurkat cells
  Km: 722 µM
  Vmax: 0.38 µM/s
cells
  fluorescence of cytosol by confocal microscopy: only weak staining

## Recombinant calcium-calmodulin activated kinase II (CamKII)
[4]
  phosphate incorporated into the peptide by CamKII in vitro (32P-ATP kinase assay), compared to the substrate peptide lacking TAT(49-57): 90% less phosphate was incorporated by the CamKII enzyme into F-CamKII-TAT compared to the peptide lacking the TAT(49-57) sequence
